Reference: US20080020978A1 (Amgen, published 2008)
Substitutions are numbered along the chain they refer to. Where two headings read alike, the source gives them in different places. Square brackets hold non-standard residues; d marks the D form. Tpi = O=C(O)[C@@H]1Cc2c([nH]c3ccccc23)CN1; hArg = N=C(N)NCCCC[C@H](N)C(=O)O; Cit = NC(=O)NCCC[C@H](N)C(=O)O

B1: SEQ ID NO 21 (peptide)
peptide: WVTHXLAGLLSRSGGVVRKNFVPTDVGPFAF
modifications: Ac-WVTH(hR)LAGLLSRSGGVVRKNFVPTDVGPFAF-NH2
B2: SEQ ID NO 23 (peptide)
peptide: B1 peptide with X5R, R12X
modifications: Ac-WVTHRLAGLLS(hR)SGGVVRKNFVPTDVGPFAF-NH2
B3: SEQ ID NO 28 (peptide)
peptide: B1 peptide
modifications: Ac-WVTH(Cit)LAGLLSRSGGVVRKNFVPTDVGPFAF-NH2; 20 k Da PEG, Amine linkage
B4: SEQ ID NO 22 (peptide)
peptide: B1 peptide
modifications: Ac-WVTH(hR)LAGLLSRSGGVVRKNFVPTDVGPFAF-NH2; 20 k Da PEG, Amine linkage
B5: SEQ ID NO 24 (peptide)
peptide: B1 peptide with X5R, R12X
modifications: Ac-WVTHRLAGLLS(hR)SGGVVRKNFVPTDVGPFAF-NH2; 20 k Da PEG, Amine linkage
B6: SEQ ID NO 32 (peptide)
peptide: B1 peptide with R12X
modifications: Ac-WVTH(Cit)LAGLLS(Cit)SGGVVRKNFVPTDVGPFAF-NH2; 20 k Da PEG, Amine linkage
B7: SEQ ID NO 26 (peptide)
peptide: B1 peptide with R12X
modifications: Ac-WVTH(hR)LAGLLS(hR)SGGVVRKNFVPTDVGPFAF-NH2; 20 k Da PEG, Amine linkage
B8: SEQ ID NO 27 (peptide)
peptide: B1 peptide
modifications: Ac-WVTH(Cit)LAGLLSRSGGVVRKNFVPTDVGPFAF-NH2
B9: SEQ ID NO 29 (peptide)
peptide: B1 peptide with X5R, R12X
modifications: Ac-WVTHRLAGLLS(Cit)SGGVVRKNFVPTDVGPFAF-NH2
B10: SEQ ID NO 30 (peptide)
peptide: B1 peptide with X5R, R12X
modifications: Ac-WVTHRLAGLLS(Cit)SGGVVRKNFVPTDVGPFAF-NH2; 20 k Da PEG, Amine linkage
B11: SEQ ID NO 33 (peptide)
peptide: Ac-WVTHRLAGLLSASGGVVRCNFVPTDVGPFAF-NH2
B12: SEQ ID NO 135 (peptide)
peptide: WVTHXLAGLLSXSGGVVXKNFVXTDVGPFAX
modifications: Ac-WVTH[Cit]LAGLLS[Cit]SGGVV[hArg]KNFV[Oic]TDVGPFA[2-Nal]-NH2
B13: SEQ ID NO 673 (peptide)
peptide: Ac-WVTH[Cit]LAGLLS[Cit]SGGVV[hArg]KNFVPTDVG[Tpi]FAF-NH2
SMILES: CC(=O)N[C@@H](Cc1c[nH]c2ccccc12)C(=O)N[C@H](C(=O)N[C@H](C(=O)N[C@@H](Cc1c[nH]cn1)C(=O)N[C@@H](CCCNC(N)=O)C(=O)N[C@@H](CC(C)C)C(=O)N[C@@H](C)C(=O)NCC(=O)N[C@@H](CC(C)C)C(=O)N[C@@H](CC(C)C)C(=O)N[C@@H](CO)C(=O)N[C@@H](CCCNC(N)=O)C(=O)N[C@@H](CO)C(=O)NCC(=O)NCC(=O)N[C@H](C(=O)N[C@H](C(=O)N[C@@H](CCCCNC(=N)N)C(=O)N[C@@H](CCCCN)C(=O)N[C@@H](CC(N)=O)C(=O)N[C@@H](Cc1ccccc1)C(=O)N[C@H](C(=O)N1CCC[C@H]1C(=O)N[C@H](C(=O)N[C@@H](CC(=O)O)C(=O)N[C@H](C(=O)NCC(=O)N1Cc2[nH]c3ccccc3c2C[C@H]1C(=O)N[C@@H](Cc1ccccc1)C(=O)N[C@@H](C)C(=O)N[C@@H](Cc1ccccc1)C(N)=O)C(C)C)[C@@H](C)O)C(C)C)C(C)C)C(C)C)[C@@H](C)O)C(C)C
B14: SEQ ID NO 675 (peptide)
peptide: WVTHXLAGLLSXSGGVVXKNFVPTDVGXXAF
modifications: Ac-WVTH[Cit]LAGLLS[Cit]SGGVV[hArg]KNFVPTDVG[Pip][1-Nal]AF-NH2
B15: SEQ ID NO 133 (peptide)
peptide: B12 peptide with F29X
modifications: Ac-WVTH[Cit]LAGLLS[Cit]SGGVV[hArg]KNFV[Oic]TDVGP[1-Nal]A[2-Nal]-NH2
B16: SEQ ID NO 132 (peptide)
peptide: B12 peptide with P28X
modifications: Ac-WVTH[Cit]LAGLLS[Cit]SGGVV[hArg]KNFV[Oic]TDVG[Oic]FA[2-Nal]-NH2
B17: SEQ ID NO 136 (peptide)
peptide: B14 peptide with F21X, P23X, X28P
modifications: Ac-WVTH[Cit]LAGLLS[Cit]SGGVV[hArg]KN[pI-Phe]V[Oic]TDVGP[pI-Phe]AF-NH2
B18: SEQ ID NO 134 (peptide)
peptide: B14 peptide with P23X, X28P
modifications: Ac-WVTH[Cit]LAGLLS[Cit]SGGVV[hArg]KNFV[Oic]TDVGP[Bip]AF-NH2
B19: SEQ ID NO 39 (peptide)
peptide: Ac-WVTHQLAGLLSQSGGVVRKNFVPTDVGPFAF-NH2
B20: SEQ ID NO 35 (peptide)
peptide: Ac-WVTHRLAGLLSQSGGVVRCNFVPTDVGPFAF-NH2
B21: SEQ ID NO 34 (peptide)
peptide: Ac-WVTHRLAGLLSASGGVVRCNFVPTDVGPFAF-NH2
modifications: not fully specified (residue 19); printed as Ac-WVTHRLAGLLSASGGVVRCNFVPTDVGPFAF-NH2
B22: SEQ ID NO 37 (peptide)
peptide: Ac-WVTHRLAGLLSQSGGVVRKNFVPTDVGPFAF-NH2
B23: SEQ ID NO 40 (peptide)
peptide: Ac-WVTHQLAGLLSQSGGVVRKNFVPTDVGPFAF-NH2
modifications: not fully specified (residue 19); printed as Ac-WVTHQLAGLLSQSGGVVRKNFVPTDVGPFAF-NH2
B24: SEQ ID NO 676 (peptide)
peptide: Ac-WVTH[Cit]LAGLLS[Cit]SGGVV[hArg]KNFVPTDVGP[Tpi]AF-NH2
SMILES: CC(=O)N[C@@H](Cc1c[nH]c2ccccc12)C(=O)N[C@H](C(=O)N[C@H](C(=O)N[C@@H](Cc1c[nH]cn1)C(=O)N[C@@H](CCCNC(N)=O)C(=O)N[C@@H](CC(C)C)C(=O)N[C@@H](C)C(=O)NCC(=O)N[C@@H](CC(C)C)C(=O)N[C@@H](CC(C)C)C(=O)N[C@@H](CO)C(=O)N[C@@H](CCCNC(N)=O)C(=O)N[C@@H](CO)C(=O)NCC(=O)NCC(=O)N[C@H](C(=O)N[C@H](C(=O)N[C@@H](CCCCNC(=N)N)C(=O)N[C@@H](CCCCN)C(=O)N[C@@H](CC(N)=O)C(=O)N[C@@H](Cc1ccccc1)C(=O)N[C@H](C(=O)N1CCC[C@H]1C(=O)N[C@H](C(=O)N[C@@H](CC(=O)O)C(=O)N[C@H](C(=O)NCC(=O)N1CCC[C@H]1C(=O)N1Cc2[nH]c3ccccc3c2C[C@H]1C(=O)N[C@@H](C)C(=O)N[C@@H](Cc1ccccc1)C(N)=O)C(C)C)[C@@H](C)O)C(C)C)C(C)C)C(C)C)[C@@H](C)O)C(C)C

Assays:
[1] = target: T1, CGRP1 receptor (CRLR/RAMP1 complex) of human neuroblastoma SK-N-MC cells (human, UniProt Q16602 23-461; O60894 27-148); assay: cell-based or functional assay
T1 sequence (Q16602 23-461, chain 1 of 2): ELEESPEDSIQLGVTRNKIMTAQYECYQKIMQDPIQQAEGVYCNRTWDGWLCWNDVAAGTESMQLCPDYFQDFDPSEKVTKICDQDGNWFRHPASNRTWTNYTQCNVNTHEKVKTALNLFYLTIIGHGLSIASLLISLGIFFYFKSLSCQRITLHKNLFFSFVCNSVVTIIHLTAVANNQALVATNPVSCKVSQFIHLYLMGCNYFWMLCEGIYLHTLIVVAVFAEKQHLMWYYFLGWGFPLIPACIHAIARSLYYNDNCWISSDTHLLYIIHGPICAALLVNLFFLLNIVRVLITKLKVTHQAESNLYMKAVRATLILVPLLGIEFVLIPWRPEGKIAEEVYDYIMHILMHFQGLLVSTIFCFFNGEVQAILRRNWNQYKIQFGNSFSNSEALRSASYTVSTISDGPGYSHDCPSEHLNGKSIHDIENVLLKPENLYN
T1 sequence (O60894 27-148, chain 2 of 2): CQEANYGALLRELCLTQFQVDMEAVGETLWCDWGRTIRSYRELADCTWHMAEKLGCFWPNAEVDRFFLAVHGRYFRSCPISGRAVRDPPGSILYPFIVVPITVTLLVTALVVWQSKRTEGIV

[2] = target: T1, CGRP1 receptor (CRLR/RAMP1 complex) of …; assay: cell-based or functional assay; remark: listed apart in the source

Binder	IC50 [1]	IC50 [2]
B1	0.44 nM	–
B2	0.57 nM	–
B3	2.08 nM	–
B4	0.36 nM	–
B5	0.33 nM	–
B6	3.74 nM	–
B7	0.37 nM	–
B8	0.57 nM	–
B9	0.58 nM	–
B10	0.96 nM	–
B11	2.75 nM	–
B12	–	3.22 nM
B13	–	28.9 nM
B14	–	10.8 nM
B15	–	2.73 nM
B16	–	2.57 nM
B17	–	2.34 nM
B18	–	3.85 nM
B19	0.53 nM	–
B20	0.37 nM	–
B21	6.2 nM	–
B22	0.56 nM	–
B23	1.33 nM	–
B24	–	79.3 nM
